Results taken from the supplement of paper PMC10567573.
± gives the standard deviation.

Assay: protein stability index of a GFP-peptide fusion (GPS, HEK-293T) (PSI 1-6); higher = more stable
[1] = treatment: DMSO, c terminus: a fixed tail appended
[2] = treatment: MLN4924 1 uM, 8 h, c terminus: a fixed tail appended
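Note: 24-mer peptide tiles fused after GFP, lentivirally expressed, FACS-sorted into six equal bins by GFP/DsRed ratio, decoded by Illumina sequencing, PSI is the read-weighted mean bin number.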

Sequence	protein stability index [1]	protein stability index [2]	protein stability index (treatment: DMSO, c terminus: native)	protein stability index (treatment: MLN4924 1 uM, 8 h, c terminus: native)
PEDLAQLEELIDMAVLEEIQQELI [RPAIN]	2.54 ± 0.14	2.89 ± 0.41	–	–
AGNNEHCGNIKAPSLQAWNDAPCD [CD207]	4.75 ± 0.33	4.71 ± 0.13	–	–
DVNSFVTECEPSELFQLQTYSLPP [CDS1]	3.58 ± 0.29	3.54 ± 0.35	–	–
RLLQEEDRRKKIARMGFNASSMLR [DCAF4]	2.52 ± 0.22	2.57 ± 0.25	–	–
GVSALCAICGDRATGKHYGASSCD [HNF4A]	3.6 ± 0.2	3.75 ± 0.45	–	–
PFETREPPPAYEPPAPAPLPPPSA [SCAMP3]	4.99 ± 0.22	5.08 ± 0.41	–	–
SNLQAMSTQMFQTKRCFRLAPTFS [SMG5]	2.17 ± 0.36	2.2 ± 0.14	–	–
NQNSWGTGEDVKVILKNSQGEEVA [LMNB1]	4.99 ± 0.22	4.85 ± 0.13	–	–
EMEVMRRQLYAVNRRLRALEEQGA [FATE1]	3.65 ± 0.29	3.68 ± 0.41	–	–
SDSIAYDKGEKLLRCKLAAFYRLA [ADD1]	2.33 ± 0.49	2.34 ± 0.28	–	–
SKVIEILDSQTEIYQYVQNSMAPH [DLC1]	2.6 ± 0.3	2.71 ± 0.28	–	–
ASNRIIGAKDHASIQMNVAEVSWE [RPS21]	3.63 ± 0.44	3.63 ± 1.4	–	–
QWGAEPEGSCYQTFRQYCGAACTC [RNF208]	3 ± 0.47	3.06 ± 0.34	–	–
VWTSPRRLVELAGQSLLKDEALAI [PRAME]	3.36 ± 0.15	3.34 ± 0.21	–	–
KCFSCNSNLHRHQRTHTGEKPYKC [ZNF263]	3.5 ± 0.1	3.45 ± 0.15	–	–
SGRPHLPGKKKIRWDPVRRRFIQS [KLHDC10]	3.35 ± 0.26	3.21 ± 0.4	–	–
RQDSPSPDFYKQSSPNLQVSSDGT [PCDHGC5]	4.86 ± 0.34	4.88 ± 0.18	–	–
NYTNPLKVQTVIILGKVILWILHL [TMEM192]	2.08 ± 0.19	2.15 ± 0.24	–	–
HNRVSKEDEDIYKLRHDLKKTSIT [PLK2]	4.02 ± 0.2	4.12 ± 0.081	–	–
LPPTPLLLFPEEEATNGREGLLRF [AUP1]	3.7 ± 0.33	3.73 ± 0.13	–	–
FLQVLEPGARGLWKPPDIKGKLMV [SPAG8]	2.38 ± 0.34	2.26 ± 0.32	–	–
ARRDAKKLVRSPSGLRMVPEHRAF [ZFYVE21]	3.11 ± 0.31	3.56 ± 0.17	–	–
ENHSMYCVQCKMPVCYQCLEEGKH [TRIM9]	4.07 ± 0.2	4.36 ± 0.41	–	–

Sequence	protein stability index [1]	protein stability index [2]	protein stability index (treatment: DMSO, c terminus: native)	protein stability index (treatment: MLN4924 1 uM, 8 h, c terminus: native)
DKHGCPAYVSPEILNTTGTYSGKA [TRIB1]	4.44 ± 0.26	4.52 ± 0.12	–	–
PEDGRIFAQRTFDYELLQMLQIVV [PCDHGC5]	2.19 ± 0.4	2.3 ± 0.36	–	–
PQEKLWQQLRRGRYVEFNLLYDRG [CPOX]	2.56 ± 0.11	2.55 ± 0.42	–	–
EEPENGEPTAAATARRSKRERREE [PWWP2B]	5.63 ± 0.29	5.8 ± 0.14	–	–
QSPGQPVQGGSEAWGPGTLAAAPE [TEX19]	5.08 ± 0.37	5.11 ± 0.24	–	–
LLYTSLPDFCHKFLPGYVGGIQEG [DHCR7]	2.58 ± 0.58	2.71 ± 0.63	–	–
MVGGGQPCGPNMSEVSCKKRDDYL [DCTD]	4.11 ± 0.33	4.21 ± 0.19	–	–
TDYINASFMDGYKQKNAYIGTQGP [PTPN9]	2.94 ± 0.24	3.21 ± 0.21	–	–
RIVKIWDMTPVVGCSLATGFSPH [WDFY1]	–	–	2.05 ± 0.28	2.34 ± 0.32
LPDPREACGSSSYVASIVDGGESR [RBMY1A1]	4.74 ± 0.24	4.64 ± 0.14	–	–
ITGAYDTIKHPGGAGAEESELQAY [MCOLN1]	4.84 ± 0.19	5.02 ± 0.19	–	–
FFHCYCPVGFGRRTDPNGDYIRRY [CRY1]	2.4 ± 0.048	2.34 ± 0.42	–	–
RQVRDKTLKRGYFQKSLVLISKLP [DENND6A]	2.27 ± 0.15	2.36 ± 0.41	–	–
AAQPMTKKRKVDGLSTEAEQPFIP [PRAME]	4.43 ± 0.21	4.55 ± 0.27	–	–
TQIGFADLMGVLTKGVREVERALQ [FEM1A]	2.29 ± 0.61	2.28 ± 0.45	–	–
TQQFKAEKLKEKLKMKEREEAWVK [PPP2R5C]	3.26 ± 0.64	3.72 ± 0.62	–	–
ERPERRSGPPASYCAKLCEPQWFY [C8orf76]	2.46 ± 0.26	2.54 ± 0.32	–	–
NFSAAKSLLNKKADGVKPQTNSTK [CAMK2B]	4.98 ± 0.22	4.85 ± 0.34	–	–
SQMVSTDNSLSSQNYISQKEDASE [MIA2]	5.29 ± 0.44	5.21 ± 0.26	–	–
KREREKEDIALNKHRSRRKWCFWN [RHOBTB1]	2.65 ± 0.29	3.07 ± 0.51	–	–
VSSSEQLQSYQAEIIELRRTVNAL [KRT33B]	3.12 ± 0.22	3.2 ± 0.42	–	–
LTKDEAAAHLKLTSIEEGYERSFI [IQUB]	3.58 ± 0.39	3.43 ± 0.16	–	–
HTSSEYDMLREMFSDSRSNNDDDE [TAF7L]	5.57 ± 0.28	5.24 ± 0.53	–	–

Sequence	protein stability index [1]	protein stability index [2]	protein stability index (treatment: DMSO, c terminus: native)	protein stability index (treatment: MLN4924 1 uM, 8 h, c terminus: native)
MASPCSAMAYHHDSRRIFVGQDNG [WDFY1]	2.64 ± 0.18	2.67 ± 0.11	–	–
ADAAEDEEVDVTSVDPIAAFCSSD [RBBP5]	5.57 ± 0.2	5.55 ± 0.2	–	–
QRINTYVFVGNQLIPQPLDSEEDE [PCMTD1]	4.32 ± 0.25	4.37 ± 0.15	–	–
PLLSPLLASRNPCPWHYLHLSGSH [RSPH3]	2.15 ± 0.23	2.01 ± 0.2	–	–
PFLFFGHFWQLFNALTLFNLAQDP [TMEM120A]	3.35 ± 0.086	3.08 ± 0.13	–	–
NKTPGAPESSALQPPPQSSEGLVG [WAS]	5.41 ± 0.35	5.3 ± 0.31	–	–
EDNLSLVCLPRSEDDDCDDDDDDD [DRICH1]	5.48 ± 0.42	5.51 ± 0.075	–	–
FLSLACARGSIVATYIFIFIGETL [SPNS1]	2.72 ± 0.2	2.92 ± 0.71	–	–
HLPVTFPGKDYDADRQCQLTFGPD [ADAMTS4]	4.12 ± 0.26	4.38 ± 0.24	–	–
FGLAIEVEGEQQAWFGFAGTPGYL [CAMK2A]	2.68 ± 0.92	2.92 ± 0.65	–	–
EGRKKAFSTCGSHLTVVAIFYGSG [OR3A1]	2.77 ± 0.4	3.15 ± 0.38	–	–
LTDFYPVRRSSRKSKAELQSEERK [KMT5A]	3.04 ± 0.39	3.49 ± 0.9	–	–
QLTKASLKPRGCSKPPWRPPGGKL [SPACA9]	2.83 ± 0.29	2.92 ± 0.079	–	–
GRPGIVAWTLINLSFAAKQRELHS [DHCR7]	2.81 ± 0.31	3.02 ± 1	–	–
RGDSVKVENPSTASHSLSPSEHVQ [ZNF649]	5.08 ± 0.37	5.19 ± 0.6	–	–
RPQHSHSNKKRPSLDGRDPGNGTH [ELOA2]	4.94 ± 0.44	4.82 ± 0.39	–	–
KRSWTSAQNACSEHGATLAVIDSE [CD69]	4.64 ± 0.076	4.67 ± 0.17	–	–
TYVGALFNGLTLLLMAVVSMFTLP [RTN1]	3 ± 0.58	3.43 ± 0.38	–	–
EKGILTTEKQNFLLFDMTTHPVTN [GOLPH3L]	3.69 ± 0.32	3.61 ± 0.27	–	–
QLQVESNSSQLLLRRHAGLLDGLA [SCARA5]	2.68 ± 0.26	2.9 ± 0.17	–	–
REEEKTFWKKYRTFWKEDKAFWKE [CCDC70]	2.57 ± 0.2	2.75 ± 0.22	–	–
GKIVGSLCAIAGVLTIALPVPVIV [KCNA1]	3.19 ± 0.34	3.22 ± 0.44	–	–
ILVQTPESESPQSHRAAGSGVSDY [TRIM9]	4.49 ± 0.37	4.49 ± 0.21	–	–

Sequence	protein stability index [1]	protein stability index [2]	protein stability index (treatment: DMSO, c terminus: native)	protein stability index (treatment: MLN4924 1 uM, 8 h, c terminus: native)
IIELLASDAGSPSLHKHLTIRLNI [PCDHGC5]	3.12 ± 0.48	3.15 ± 0.6	–	–
SFWNDCISSGLRGCMLIELALRGR [GOLPH3]	2.71 ± 0.35	2.66 ± 0.75	–	–
MWKFVSPLCMAVLTTASIIQLGVT [SLC6A17]	3.21 ± 0.58	2.87 ± 0.49	–	–
HLTVVAIFYGSGIFNYMRLGSTKL [OR3A1]	3.1 ± 0.62	2.76 ± 0.37	–	–
ESLRPLVQTPPGGSEVVPVISPMY [IKZF1]	–	3.72 ± 0.71	–	–
GTEITIAFDFDYGNCKYKVDCACL [KMT2E]	3.01 ± 0.52	2.39 ± 0.5	–	–
EDDPSVLYVSLHRYDHGTFFPMGD [HDAC6]	2.29 ± 0.31	2.37 ± 0.3	–	–
SLAHCRHDGEDVACPQGGVQYGAG [LOXL2]	4.65 ± 0.5	3.96 ± 0.41	–	–
CHEDVEALAAIYEEKEAWYREESD [DAPK3]	5.1 ± 0.22	5.12 ± 0.62	–	–
QLDIASQSLDQEILLKVKTEIEEE [BCL2L13]	5.21 ± 0.37	5.09 ± 0.21	–	–
ETYMSADDLRINLWHLAITDRSFN [PPP2R2C]	2.23 ± 0.32	2.36 ± 0.29	–	–
RALKFRERDALEAVFRFWAGGEKG [DNAAF3]	2.32 ± 0.07	2.59 ± 0.43	–	–
DRETQEGKPPTAHLDRTSVSSLSE [ELOA2]	5.37 ± 0.34	5.42 ± 0.21	–	–
ALVAAGGAPEDDEEDDGRGRGLLR [DENND6A]	5.5 ± 0.15	5.33 ± 0.14	–	–
ILFVNSEFETLYNEHKSCEEKSVK [CLK3]	2.74 ± 0.25	3.05 ± 0.3	–	–
YAVTPLPWCPHLVAVCPIPAAGLD [HDAC6]	2.99 ± 0.49	2.33 ± 0.48	–	–
LEFDLLIFSFGQLPLALVTWVPMF [SOAT2]	3.17 ± 0.49	3.02 ± 0.33	–	–
PPEPLSQVSMWDQRWQDHQPLLPI [APBB1IP]	2.76 ± 0.75	3.72 ± 1.1	–	–
SKRMTFQMPKFDLGPLLSEPLVLY [MYOZ1]	2.36 ± 0.39	2.26 ± 0.28	–	–
EETVTMLEDVERELDGPKQIFFGR [ZNF396]	4.5 ± 0.14	4.49 ± 0.26	–	–
